Measurements reported in US20210139568A1 (AXON NEUROSCIENCE, published 2021).

What was measured:
[1] = target: in vitro phosphorylated tau deletion mutant tau 221-441 (human, UniProt P10636 538-758, phosphorylated in vitro with rat brain kinase extract; sites not listed); experiment: immunoblot of in vitro phosphorylated tau deletion mutants
[2] = target: T1, in vitro phosphorylated tau 2N4R point mutant Thr217Ala (human, UniProt P10636 1-758, phosphorylated in vitro with rat brain kinase extract; sites not listed); experiment: immunoblot of in vitro phosphorylated tau 2N4R point mutants
T1 construct: also called Thr217A1a
Protocol: Soluble tau proteins were diluted with an equal volume of 2×SDS (sodium dodecylsulfate) sample loading buffer (with β-mercaptoethanol) (Laemmli, 1970) and 250 ng of proteins were loaded per lane. For insoluble PHF-tau, the pellets were dissolved in 1×SDS-sample loading buffer, in 1/50 volume of the soluble fraction used for the preparation of the insoluble tau fraction. Then, equal volumes of soluble tau and sarkosyl-insoluble tau fractions were used for immunoblotting, which corresponded to 15 μg of total protein in the soluble fraction (see Filipcik et al. 2010). Samples were heated at 95° C. for 5 min, loaded onto 5-20% gradient SDS polyacrylamide gels, and electrophoresed in a Tris-glycine-SDS buffer system for 40 minutes at 25 mA. Proteins were transferred to a polyvinylidene fluoride (PVDF) membrane (1 h at 150 mA in 10 mM CAPS, pH 12). […] The blots were developed with SuperSignal West Pico Chemiluminescent Substrate (Pierce, U.S.A), and the protein signals detected using a LAS3000 imaging system (FUJI Photo Film Co., Japan). The chemiluminescence signal intensities were quantified using AIDA (Advanced Image Data Analyzer, Raytest, Straubenhardt, Germany) software. […]

Chain of in vitro phosphorylated tau deletion mutant tau 221-441 (P10636 other isoform, or with tags, fused parts or gaps mutant): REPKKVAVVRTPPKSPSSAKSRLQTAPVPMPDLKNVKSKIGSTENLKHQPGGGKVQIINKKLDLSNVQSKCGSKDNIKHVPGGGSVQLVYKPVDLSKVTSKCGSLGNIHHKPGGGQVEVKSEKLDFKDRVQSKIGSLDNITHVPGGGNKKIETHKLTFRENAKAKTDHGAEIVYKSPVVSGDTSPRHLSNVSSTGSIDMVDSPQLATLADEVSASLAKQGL
T1 sequence (P10636 other isoform, or with tags, fused parts or gaps T217A T217A limits assumed): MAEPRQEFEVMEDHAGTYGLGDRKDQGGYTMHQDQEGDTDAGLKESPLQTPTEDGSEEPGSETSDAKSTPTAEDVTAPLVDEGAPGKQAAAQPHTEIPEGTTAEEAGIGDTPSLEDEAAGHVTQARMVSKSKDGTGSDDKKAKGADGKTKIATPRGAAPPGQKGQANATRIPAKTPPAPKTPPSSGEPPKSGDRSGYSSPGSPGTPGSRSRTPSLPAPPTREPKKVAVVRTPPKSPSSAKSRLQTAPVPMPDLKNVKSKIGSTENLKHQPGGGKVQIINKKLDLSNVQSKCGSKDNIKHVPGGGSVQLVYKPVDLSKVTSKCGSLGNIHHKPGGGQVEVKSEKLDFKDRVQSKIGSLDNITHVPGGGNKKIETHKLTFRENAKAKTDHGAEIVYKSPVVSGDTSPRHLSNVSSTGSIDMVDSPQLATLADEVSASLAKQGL

B1: monoclonal antibody DC2E7 (antibody, mouse IgG2a, V domains shown)
VH: DVQLVESGGGLVQPGGSRKLSCAASGFTFSSFGMHWVRQAPEKGLEWVAYISGDSNTIYYADTVKGRFTISRDNPKNTLFLQMTSLRSEDTAIYYCARTLAYWGQGTLVTVS
VL: DIQMTQSSSSFSVSLGDRVTITCKASEDIYNRLAWYQQTPGNAPSLLISGASGLETGVPSRFSGSGSGRDYTLSITSLQTEDVATYYCLQYWSIPWTFGGGTKLEIKR
notes: also called DC217 (apparent misprint)
[1]
  binding result: no binding
[2]
  binding result: no binding
